The test system of one data set is Mbnl1 protein. In words: Western blot of Mbnl1 in mouse muscle. Set-up: scale not given here. Conditions: HSALR mice, quadriceps, same value given for every mouse of a treatment group. Format: in vivo. The protocol:
A 96-well plate QDB assay was used[87] to determine MBNL1 protein levels in all replicates and concentrations of each ON tested. This technique allows for high-throughput screening of low protein concentration samples over conventional western blot (WB) (Figure S9).[88] Cell samples (1 μg/well) and mice samples (2 μg/well) were prepared with 4× loading buffer, denatured (100°C for 5 min) and loaded in QDB plates (Quanticision Diagnostics, Research Triangle Park, NC). For the quantification of in vitro samples, the QDB was performed exactly as described in Moreno et al.[87] Each cell sample was loaded in quadruplicate in two different plates; one was used to detect MBNL1 (it was incubated overnight with primary mouse anti-MBNL1 [1:1,000, Abcam, ab77017]) and the other for GAPDH (it was incubated overnight with primary mouse anti-GAPDH [1:500, Santa Cruz, clone G-9]), which was used here as an endogenous control. For Mbnl1 quantification in mouse muscle tissues, we implemented the following modifications: each sample was loaded in quadruplicate on three different plates. One was used to detect Mbnl1 with a mouse MB1a(4A8) antibody (DSHB, Iowa City, IA) using a 1:200 dilution. A second plate was used to quantify tubulin (endogenous normalization control) with a mouse 12G10 antibody (DSHB) using a 1:1,000 dilution. A third plate was used to quantify IgG signal (negative control to subtract background) using an anti-mouse-IgG secondary antibody (Sigma-Aldrich) at 1:3,500 dilution. This subtraction was necessary due to an unspecific IgG signal could be observed in mouse samples (Figures S10A–S10D). All primary antibodies were detected using horseradish peroxidase-conjugated anti-mouse-IgG secondary antibody (1:5,000 for the anti-mouse plate, 1:2,000 for cell plates, and 1:3,500 for mouse plates [Sigma-Aldrich, MO]). Immunoreactive bands were detected using Pierce ECL Western reagent (Thermo Scientific), and luminescence levels were determined using an Infinite M200 PRO plate reader (Tecan). The validity of this correction for QDB quantification of mouse samples was confirmed by performing a series of experiments determining both the window of linearity of the assay (2–5 μg protein, Figures S10A–S10B) and the comparison with data obtained by WB in a subset of samples (Figures S10E–S10H), obtaining a correlation of 0.9927 for MBNL1 and 0.8678 for tubulin (in the case of quadriceps), and 0.9821 for MBNL1 and 0.9699 for tubulin (in gastrocnemius). For WB assay in quadriceps (Figure S10I), samples were loaded in pools of each treatment to have a representative WB of all the treatments tested. WB assay was performed as described previously.[20]
(A western blot detects proteins with antibodies after separation by electrophoresis.)

For data set [1], the system named is HSALR mice. Put plainly: White blood cell differential count. Conditions: mouse, in vivo, iv, 9.2 mg/kg. It is filed as in vivo, mouse. From the text: (§1) Mouse handling and experimental procedures followed the European law regarding laboratory animal care and experimentation (2003/65/C.E.) and were approved by Conselleria de Agricultura, […] (reference no. A1539961490857). We used homozygous transgenic HSA^LR (line 20 b) mice,[90] which were kindly provided by Dr Thornton (Rochester, NY) and were housed and bred in our animal facility. […] The mice were randomly allocated to the different treatments as follows: in each cage, each mouse was ear-marked as it was taken out, and each mouse was then assigned to a different treatment. Animals were injected biweekly intravenously with 150 μL of 1× PBS vehicle (controls; […] Mice were sacrificed 45 days after the first injection and the tissues of interest were frozen in liquid nitrogen for the molecular and histological assays. All the mice used in this study ranged from 5 to 5.5 months of age and all were males. At 45 days post treatment, animals were sacrificed, and blood was collected by cardiac puncture exsanguination with K3-EDTA (Sarstedt, Nümbrecht, Germany). The samples were analyzed by Laboratorios Montoro Botella (Valencia, Spain).

The next data set deals with Clcn1 exon 7a. Put plainly: Alternative splicing of Clcn1 exon 7a in muscle by RT-PCR (PSI, splice recovery). Conditions: HSALR mice, individual mice; for Percentage spliced-in (PSI) Clcn1 Gast: 9.2 mg/kg (mean) i.v. x3, day 45, gastrocnemius; for Percentage spliced-in (PSI) Clcn1 Quads: 9.2 mg/kg (mean) i.v. x3, day 45, quadriceps. It is filed as in vivo, mouse. On the procedure: Total RNA from murine gastrocnemius and quadriceps muscle was isolated using the miRNeasy Mini Kit (QIAGEN, Hilden, Germany) according to the manufacturer’s instructions. One microgram of RNA was digested with DNase I (Invitrogen, Carlsbad, CA) and reverse transcribed with SuperScript II (Invitrogen) using random hexanucleotides. For subsequent PCR reactions, 20 ng of cDNA was used with GoTaq polymerase (Promega). Specific primers were used to analyze the alternative splicing of Nfix, Atp2a1, and Clcn1 in mouse samples (both muscles). Gapdh levels established the endogenous reference levels using 0.2 ng of cDNA. PCR products were separated on a 2% agarose gel and quantified using ImageJ software (NIH, Bethesda, MD). PSR index was defined as value%SI minus X¯%DSI , divided by X¯%DSI minus X¯%HSI (SI, splicing inclusion of each sample; DSI, disease splicing inclusion; HSI, healthy splicing inclusion). Overall, PSR indicates the amount in both muscles analyzed. Primer sequences and exons analyzed are available in Cerro-Herreros et al.[20] In the case of off-targets, interleukins, and muscle regeneration marker Mstn-1, primers sequences are available in Table S5. We used 1 ng of mouse tissue cDNA as a template for multiplex qPCR using the QuantiFast Probe PCR Kit reagent. Commercial TaqMan probes (QIAGEN) were used for mouse (Mbnl1 and Mbnl2; FAM-labeled probes) and reference (GAPDH; MAX-labeled probe) genes. Results were normalized to Gapdh endogenous gene expression.
We used homozygous transgenic HSA^LR (line 20 b) mice,[90] which were kindly provided by Dr Thornton (Rochester, NY) and were housed and bred in our animal facility. Experimental groups were FVB as healthy control and HSA^LR treated with a scrambled ON (SC) and PBS as negative controls, and HSA^LR mice treated with all six experimental CPP-PMOs. The mice were randomly allocated to the different treatments as follows: in each cage, each mouse was ear-marked as it was taken out, and each mouse was then assigned to a different treatment. […] Mice were sacrificed 45 days after the first injection and the tissues of interest were frozen in liquid nitrogen for the molecular and histological assays. All the mice used in this study ranged from 5 to 5.5 months of age and all were males.

The test system of data set [2] is HSALR mice. In words: Serum biochemistry profile. The note with it: mouse, in vivo, iv, 9.2 mg/kg. It is filed as in vivo, mouse.
Source text: as §1

“And” between values parts separate entries of the source, which are not always exact repeats. Identical values can stand only once.

As for “6aKC-23b (antisense GGUAAUCCCUGGCAAUGUGAU; all phosphorodiamidate morpholino (PMO), T or U not given here; Pip6aKC peptide conjugated)”, in the data set on Mbnl1 protein (western blot), the “Mbnl1 Quads, WB assay” value was determined as 1.13. Besides, in the data set with HSALR mice [1], the Basophils was 0 ± 0%, the Eosinophils is on record as 2,40 ± 1,341%, the Lymphocytes is 47,80 ± 12,133% and the Monocytes was 17,60 ± 7,537%. In addition, in the data set on HSALR mice [1], the Seg cells is given as 31,2 ± 13,142%. In the data set on Clcn1 exon 7a, the “Percentage spliced-in (PSI) Clcn1 Gast” value was 15.22% and 18.35% and 23.17% and 29.03% and 31.54%; the “Percentage spliced-in (PSI) Clcn1 Quads” value is 24.44% and 30.63% and 35.11% and 37.69% and 28.33%. Also, in the data set on HSALR mice [2], the ALT is listed as 57,8 ± 13,349 U/L, the AST is recorded as 143,60 ± 41,464 U/L, the “Alkaline Phosphatase” value was 58,40 ± 6,693 U/L and the Amylase is 4232,6 ± 2590,822 U/L. In the data set with HSALR mice [2], the “Bile Acids” value was 0,675 ± 0,754 µmol/L, the Bilirubin is recorded as 0,11 ± 0,083 mg/dL, the C.P.K. is reported as 831,8 ± 357,821 U/L and the Creatinine is reported as 0,20 ± 0 mg/dL. In the data set with HSALR mice [2], the Glucose is 121,2 ± 27,607 mg/dL, the L.D.H. is recorded as 2574 ± 453,119 U/L, the Total cholesterol is reported as 227,40 ± 11,014 mg/dL and the Triglycerides was 235,4 ± 40,209 mg/dL.

With “6aKC-218 (antisense ACAUGGUUAGAUCAAGCACAA; all phosphorodiamidate morpholino (PMO), T or U not given here; Pip6aKC peptide conjugated)”, the “Mbnl1 Quads, WB assay” value with Mbnl1 protein (protein) came out at 1.02. Moreover, in the data set with HSALR mice [1], the Basophils is reported as 0 ± 0%, the Eosinophils is given as 0,60 ± 0,894%, the Lymphocytes is 57,20 ± 12,357% and the Monocytes is 21,40 ± 7,127%. In the data set on HSALR mice [1], the Seg cells is 20,4 ± 6,189%. In the data set with Clcn1 exon 7a, the “Percentage spliced-in (PSI) Clcn1 Gast” value is 28.37% and 38.26% and 18.26% and 24.01% and 28.56%; the “Percentage spliced-in (PSI) Clcn1 Quads” value was 33.68% and 24.84% and 25.74% and 41.25% and 27.67%. In the data set with HSALR mice [2], the ALT is given as 60,20 ± 16,208 U/L, the AST is 138,4 ± 57,665 U/L, the “Alkaline Phosphatase” value is 58 ± 4,123 U/L and the Amylase is recorded as 2999,4 ± 120,286 U/L. In the data set with HSALR mice [2], the “Bile Acids” value is 2,38 ± 3,406 µmol/L, the Bilirubin is reported as 0,096 ± 0,03 mg/dL, the C.P.K. is given as 818 ± 604,389 U/L and the Creatinine is 0,20 ± 0 mg/dL. Further, in the data set with HSALR mice [2], the Glucose was 107,2 ± 31,292 mg/dL, the L.D.H. is on record as 2137,60 ± 340,071 U/L, the Total cholesterol was 232 ± 12,124 mg/dL and the Triglycerides is 273,4 ± 51,335 mg/dL.

As for “9b2-23b (antisense GGUAAUCCCUGGCAAUGUGAU; all phosphorodiamidate morpholino (PMO), T or U not given here; Pip9b2 peptide conjugated)”, the “Mbnl1 Quads, WB assay” value with Mbnl1 protein (protein) is recorded as 1.46. In addition, in the data set with Mbnl1 protein (western blot), the “Mbnl1 Quads, WB assay” value is recorded as 1.46. For the same substance, in the data set with HSALR mice [1], the Basophils is 0,2 ± 0,447%, the Eosinophils is reported as 6,20 ± 2,588%, the Lymphocytes is listed as 65,40 ± 6,189% and the Monocytes was 6,20 ± 2,683%. Moreover, the Seg cells in the data set with HSALR mice [1] was 21 ± 3,391%. Further, in the data set on Clcn1 exon 7a, the “Percentage spliced-in (PSI) Clcn1 Gast” value is 26.85% and 32.69% and 33.28% and 26.86% and 11.37%; the “Percentage spliced-in (PSI) Clcn1 Quads” value turned out to be 0.61%. Also, in the data set with HSALR mice [2], the ALT is 47 ± 6,708 U/L, the “Alkaline Phosphatase” value is 61 ± 4,301 U/L, the Amylase is reported as 2754,4 ± 540,954 U/L and the “Bile Acids” value is given as 9 ± 11,747 µmol/L. Besides, in the data set on HSALR mice [2], the Bilirubin is 0,102 ± 0,029 mg/dL, the Creatinine is 0,26 ± 0,054 mg/dL, the Lipase is given as 36,60 ± 8,264 U/L and the Urea was 53 ± 2,345 mg/dL. Also, in the data set with HSALR mice [2], the “urea values vs HSALR group treated with PBS” value was “statistically significant increase in the urea values”.

Take “9b2-218 (antisense ACAUGGUUAGAUCAAGCACAA; all phosphorodiamidate morpholino (PMO), T or U not given here; Pip9b2 peptide conjugated)”: the “Mbnl1 Quads, WB assay” value with Mbnl1 protein (protein) was determined as 1.58. In the data set on HSALR mice [1], the Basophils is reported as 0,2 ± 0,447%, the Eosinophils is given as 5,40 ± 2,073%, the Lymphocytes was 61,60 ± 4,159% and the Monocytes is 9,60 ± 3,209%. Moreover, the Seg cells in the data set with HSALR mice [1] was 22,40 ± 3,647%. In the data set on Clcn1 exon 7a, the “Percentage spliced-in (PSI) Clcn1 Gast” value is 5.28% and 30.49% and 30.67% and 18.06% and 25.23%; the “Percentage spliced-in (PSI) Clcn1 Quads” value is listed as 4.09%. For the same substance, in the data set on HSALR mice [2], the ALT is 49 ± 19,079 U/L, the “Alkaline Phosphatase” value is 61,40 ± 6,730 U/L, the Amylase was 2773,2 ± 363,954 U/L and the “Bile Acids” value was 74,80 ± 159,433 µmol/L. Moreover, in the data set with HSALR mice [2], the Bilirubin was 0,108 ± 0,044 mg/dL, the Creatinine was 0,32 ± 0,192 mg/dL, the Lipase was 63,8 ± 75,793 U/L and the Urea is 44,40 ± 6,985 mg/dL.
